From article PMC10786891, “Massively parallel profiling of RNA-targeting CRISPR-Cas13d” come the findings set out here.

To fix the notation:
B1: target 1 insA 3' of 21,insC 3' of 18 (mixed)
RNA 1: CACCCGUGCAAAAAUGCAGGGGUCUAAAACUGAGCGGAUAACCUCUCUAUGG
RNA 2: GGGAAUGGAUCCACAUCUACGAAUUCGUACCAAUACGAGAGGUUAUCCGCUCACCGAGAUCGGAAGAGCACACGU
B2: target 1 C7U,U19C (mixed)
RNA 1: CACCCGUGCAAAAAUGCAGGGGUCUAAAACUGAGCGGAUAACCUCUCUAUGG
RNA 2: GGGAAUGGAUCCACAUCUACGAAUUCGUACCACAGAGAGGUUAUUCGCUCACCGAGAUCGGAAGAGCACACGU
B3: target 3 insC 3' of 4 (mixed)
RNA 1: CACCCGUGCAAAAUUGCAGGGGUCUAAAACGACCUGAAUAUUUCAGAUCAAA
RNA 2: GGGAAUGGAUCCACAUCUACGAAUUCGUUUUUGAUCUGAAAUAUUCAGCGUCUGCAGAUCGGAAGAGCACACGU
B4: target 3 insG 3' of 6,insA 3' of 2 (mixed)
RNA 1: CACCCGUGCAAAAUUGCAGGGGUCUAAAACGACCUGAAUAUUUCAGAUCAAA
RNA 2: GGGAAUGGAUCCACAUCUACGAAUUCGUUUUUGAUCUGAAAUAUUCGAGGUACUGCAGAUCGGAAGAGCACACGU
B5: target 3 insG 3' of 9,insC 3' of 5 (mixed)
RNA 1: CACCCGUGCAAAAUUGCAGGGGUCUAAAACGACCUGAAUAUUUCAGAUCAAA
RNA 2: GGGAAUGGAUCCACAUCUACGAAUUCGUUUUUGAUCUGAAAUAGUUCACGGUCUGCAGAUCGGAAGAGCACACGU
B6: target 3 insA 3' of 22,insA 3' of 22 (mixed)
RNA 1: CACCCGUGCAAAAUUGCAGGGGUCUAAAACGACCUGAAUAUUUCAGAUCAAA
RNA 2: GGGAAUGGAUCCACAUCUACGAAUUCGUUUAAUUGAUCUGAAAUAUUCAGGUCUGCAGAUCGGAAGAGCACACGU
B7: target 3 insU 3' of 6,insG 3' of 5 (mixed)
RNA 1: CACCCGUGCAAAAUUGCAGGGGUCUAAAACGACCUGAAUAUUUCAGAUCAAA
RNA 2: GGGAAUGGAUCCACAUCUACGAAUUCGUUUUUGAUCUGAAAUAUUCUAGGGUCUGCAGAUCGGAAGAGCACACGU
B8: target 3 insU 3' of 22,insA 3' of 7 (mixed)
RNA 1: CACCCGUGCAAAAUUGCAGGGGUCUAAAACGACCUGAAUAUUUCAGAUCAAA
RNA 2: GGGAAUGGAUCCACAUCUACGAAUUCGUUUUUUGAUCUGAAAUAUUACAGGUCUGCAGAUCGGAAGAGCACACGU
B9: target 3 G4A,A5C (mixed)
RNA 1: CACCCGUGCAAAAUUGCAGGGGUCUAAAACGACCUGAAUAUUUCAGAUCAAA
RNA 2: GGGAAUGGAUCCACAUCUACGAAUUCGUUUUUGAUCUGAAAUAUUCCAGUCUGCAGAUCGGAAGAGCACACGU
B10: target 3 U8G,U22A (mixed)
RNA 1: CACCCGUGCAAAAUUGCAGGGGUCUAAAACGACCUGAAUAUUUCAGAUCAAA
RNA 2: GGGAAUGGAUCCACAUCUACGAAUUCGUUAUUGAUCUGAAAUAGUCAGGUCUGCAGAUCGGAAGAGCACACGU
B11: target 3 A12C,U22C (mixed)
RNA 1: CACCCGUGCAAAAUUGCAGGGGUCUAAAACGACCUGAAUAUUUCAGAUCAAA
RNA 2: GGGAAUGGAUCCACAUCUACGAAUUCGUUCUUGAUCUGACAUAUUCAGGUCUGCAGAUCGGAAGAGCACACGU
B12: target 3 insC 3' of 12,insA 3' of 2 (mixed)
RNA 1: CACCCGUGCAAAAUUGCAGGGGUCUAAAACGACCUGAAUAUUUCAGAUCAAA
RNA 2: GGGAAUGGAUCCACAUCUACGAAUUCGUUUUUGAUCUGAACAUAUUCAGGUACUGCAGAUCGGAAGAGCACACGU
B13: target 3 insU 3' of 6,insU 3' of 4 (mixed)
RNA 1: CACCCGUGCAAAAUUGCAGGGGUCUAAAACGACCUGAAUAUUUCAGAUCAAA
RNA 2: GGGAAUGGAUCCACAUCUACGAAUUCGUUUUUGAUCUGAAAUAUUCUAGUGUCUGCAGAUCGGAAGAGCACACGU
B14: target 3 U2G,G3U (mixed)
RNA 1: CACCCGUGCAAAAUUGCAGGGGUCUAAAACGACCUGAAUAUUUCAGAUCAAA
RNA 2: GGGAAUGGAUCCACAUCUACGAAUUCGUUUUUGAUCUGAAAUAUUCAGUGCUGCAGAUCGGAAGAGCACACGU
B15: target 3 G4A,U22C (mixed)
RNA 1: CACCCGUGCAAAAUUGCAGGGGUCUAAAACGACCUGAAUAUUUCAGAUCAAA
RNA 2: GGGAAUGGAUCCACAUCUACGAAUUCGUUCUUGAUCUGAAAUAUUCAAGUCUGCAGAUCGGAAGAGCACACGU
B16: target 3 G4A,A12U (mixed)
RNA 1: CACCCGUGCAAAAUUGCAGGGGUCUAAAACGACCUGAAUAUUUCAGAUCAAA
RNA 2: GGGAAUGGAUCCACAUCUACGAAUUCGUUUUUGAUCUGAUAUAUUCAAGUCUGCAGAUCGGAAGAGCACACGU
B17: target 3 U2G,U22G (mixed)
RNA 1: CACCCGUGCAAAAUUGCAGGGGUCUAAAACGACCUGAAUAUUUCAGAUCAAA
RNA 2: GGGAAUGGAUCCACAUCUACGAAUUCGUUGUUGAUCUGAAAUAUUCAGGGCUGCAGAUCGGAAGAGCACACGU
B18: target 3 insG 3' of 7,insC 3' of 7 (mixed)
RNA 1: CACCCGUGCAAAAUUGCAGGGGUCUAAAACGACCUGAAUAUUUCAGAUCAAA
RNA 2: GGGAAUGGAUCCACAUCUACGAAUUCGUUUUUGAUCUGAAAUAUUGCCAGGUCUGCAGAUCGGAAGAGCACACGU
B19: target 3 insU 3' of 22,insU 3' of 4 (mixed)
RNA 1: CACCCGUGCAAAAUUGCAGGGGUCUAAAACGACCUGAAUAUUUCAGAUCAAA
RNA 2: GGGAAUGGAUCCACAUCUACGAAUUCGUUUUUUGAUCUGAAAUAUUCAGUGUCUGCAGAUCGGAAGAGCACACGU
B20: target 3 G3A,U7A (mixed)
RNA 1: CACCCGUGCAAAAUUGCAGGGGUCUAAAACGACCUGAAUAUUUCAGAUCAAA
RNA 2: GGGAAUGGAUCCACAUCUACGAAUUCGUUUUUGAUCUGAAAUAUACAGAUCUGCAGAUCGGAAGAGCACACGU
B21: target 3 insC 3' of 5,insC 3' of 3 (mixed)
RNA 1: CACCCGUGCAAAAUUGCAGGGGUCUAAAACGACCUGAAUAUUUCAGAUCAAA
RNA 2: GGGAAUGGAUCCACAUCUACGAAUUCGUUUUUGAUCUGAAAUAUUCACGGCUCUGCAGAUCGGAAGAGCACACGU
B22: target 3 insU 3' of 22,insC 3' of 5 (mixed)
RNA 1: CACCCGUGCAAAAUUGCAGGGGUCUAAAACGACCUGAAUAUUUCAGAUCAAA
RNA 2: GGGAAUGGAUCCACAUCUACGAAUUCGUUUUUUGAUCUGAAAUAUUCACGGUCUGCAGAUCGGAAGAGCACACGU
B23: target 3 U2G,A9G (mixed)
RNA 1: CACCCGUGCAAAAUUGCAGGGGUCUAAAACGACCUGAAUAUUUCAGAUCAAA
RNA 2: GGGAAUGGAUCCACAUCUACGAAUUCGUUUUUGAUCUGAAAUGUUCAGGGCUGCAGAUCGGAAGAGCACACGU
B24: target 3 U2G,C6A (mixed)
RNA 1: CACCCGUGCAAAAUUGCAGGGGUCUAAAACGACCUGAAUAUUUCAGAUCAAA
RNA 2: GGGAAUGGAUCCACAUCUACGAAUUCGUUUUUGAUCUGAAAUAUUAAGGGCUGCAGAUCGGAAGAGCACACGU
B25: target 3 insA 3' of 10,insU 3' of 4 (mixed)
RNA 1: CACCCGUGCAAAAUUGCAGGGGUCUAAAACGACCUGAAUAUUUCAGAUCAAA
RNA 2: GGGAAUGGAUCCACAUCUACGAAUUCGUUUUUGAUCUGAAAUAAUUCAGUGUCUGCAGAUCGGAAGAGCACACGU
B26: target 3 U7A,U22C (mixed)
RNA 1: CACCCGUGCAAAAUUGCAGGGGUCUAAAACGACCUGAAUAUUUCAGAUCAAA
RNA 2: GGGAAUGGAUCCACAUCUACGAAUUCGUUCUUGAUCUGAAAUAUACAGGUCUGCAGAUCGGAAGAGCACACGU
B27: target 3 insG 3' of 6,insU 3' of 3 (mixed)
RNA 1: CACCCGUGCAAAAUUGCAGGGGUCUAAAACGACCUGAAUAUUUCAGAUCAAA
RNA 2: GGGAAUGGAUCCACAUCUACGAAUUCGUUUUUGAUCUGAAAUAUUCGAGGUUCUGCAGAUCGGAAGAGCACACGU

The target of the series is T1, EsCas13d, nuclease-dead (Eubacterium siraeum, UniProt B0MS50, R295A;H300A;R849A;H854A).
T1 sequence: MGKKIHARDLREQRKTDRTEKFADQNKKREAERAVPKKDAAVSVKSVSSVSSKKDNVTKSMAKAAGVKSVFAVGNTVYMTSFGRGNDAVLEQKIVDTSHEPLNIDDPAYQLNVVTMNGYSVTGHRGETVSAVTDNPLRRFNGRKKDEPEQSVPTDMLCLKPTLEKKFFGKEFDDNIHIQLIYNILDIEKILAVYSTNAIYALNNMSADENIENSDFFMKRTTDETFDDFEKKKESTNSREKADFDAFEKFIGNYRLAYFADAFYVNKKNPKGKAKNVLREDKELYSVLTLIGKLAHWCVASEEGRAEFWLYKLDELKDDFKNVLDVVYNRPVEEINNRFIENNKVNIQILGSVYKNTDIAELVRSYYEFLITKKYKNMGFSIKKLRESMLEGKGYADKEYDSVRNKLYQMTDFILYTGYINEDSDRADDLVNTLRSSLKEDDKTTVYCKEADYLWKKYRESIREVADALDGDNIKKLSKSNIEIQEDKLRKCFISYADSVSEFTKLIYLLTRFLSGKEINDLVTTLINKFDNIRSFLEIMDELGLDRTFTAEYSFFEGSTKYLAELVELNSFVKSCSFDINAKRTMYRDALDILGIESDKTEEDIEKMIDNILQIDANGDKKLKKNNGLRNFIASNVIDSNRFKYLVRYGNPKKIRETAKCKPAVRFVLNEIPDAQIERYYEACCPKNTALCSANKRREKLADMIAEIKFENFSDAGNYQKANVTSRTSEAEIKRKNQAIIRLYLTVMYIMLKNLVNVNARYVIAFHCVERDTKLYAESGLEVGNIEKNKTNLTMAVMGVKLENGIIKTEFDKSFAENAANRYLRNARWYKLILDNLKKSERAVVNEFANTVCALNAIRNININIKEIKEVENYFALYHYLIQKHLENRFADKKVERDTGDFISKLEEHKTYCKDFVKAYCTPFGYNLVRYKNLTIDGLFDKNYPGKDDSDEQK
Nature of the series: crRNA (strand 1, pre-loaded); Mg2+; 40 mM Tris-HCl pH 7.5, 150 mM NaCl, 6 mM MgCl2, 1 mM DTT, 0.1% Tween-20, 0.2 mg/ml BSA; 25 C; 10 min per concentration, then washed. As to conditions: tags: His6-TwinStrep-SUMO cleaved; N-terminal SNAP kept (SNAP-Surface 488); label: 3' end held by stalled T7 RNA polymerase.
Consider B1, for which the Kd was found to be 47 ± 7 nM. The figure for B2 is 23.5 ± 1.7 nM. Turning to B3, the Kd was found to be 19 ± 2.45 nM.

In turn, B4 showed a Kd of 15.6 ± 1.85 nM.

In turn, B5 displayed a Kd of 80.5 ± 12.5 nM. B6: the Kd is 19.4 ± 2.45 nM.

B7 displayed a Kd of 10.9 ± 0.9 nM. In the case of B8, the Kd was determined as 68.5 ± 19 nM. B9 returned a Kd of 99 ± 21 nM. The figure for B10 is 72.5 ± 13.5 nM. The figure for B11 is 53 ± 20 nM; for B12 it is ~102 nM; for B13 it is 6.95 ± 0.7 nM. Turning to B14, the Kd came to 9.2 ± 0.8 nM. This Kd and that of the molecule before are within 1.5-fold of each other. In turn, B15 showed a Kd of 7.05 ± 1 nM.

As to B16, the Kd amounted to 72.5 ± 11 nM.

Consider B17, for which the equilibrium dissociation constant (Kd) came out at 61.5 ± 14.5 nM. For B18 the value was 44.5 ± 5 nM; for B19, 4.9 ± 0.95 nM. For B20 the value was 72.5 ± 14.5 nM; for B21, 19.6 ± 1.9 nM; for B22, 24.1 ± 2.9 nM. The figure for B23 is 36 ± 5 nM; for B24 it is 11.3 ± 1.4 nM; for B25 it is 59 ± 13 nM.

B26 yielded an equilibrium dissociation constant (Kd) of 41 ± 6.5 nM.

For the molecule B27, the Kd came out at 6.95 ± 0.6 nM.
